Measurements taken from patent US20250325682A1, “FKBP52-DERIVED THERAPEUTIC PEPTIDES THAT INHIBIT PATHOLOGICAL TAU AGGREGATION FOR THERAPEUTIC PURPOSES” (priority 2024, published 2025).
Ends that are not written are not given here.

B1: YARAAARQARA-P50 (peptide)
chain: YARAAARQARAAKPNEGAIVEVALEGYYKDKLFDQRELRFEIGEGENLDLPYGLERAIQRM

Experiments:
Tau-P301L = target: T1, Tau-P301L (Homo sapiens, UniProt P10636, P618L); experiment: Thioflavine T fluorescence assay of seeded Tau-P301L aggregation; assay type: biochemical; conditions: for Tau-P301L aggregate formation (ThT fluorescence intensity): Tau-P301L 5 μM with Tau seeds, peptide 50 μM, fluorescence at 24 h, ±SEM, n=3, remaining aggregation
T1 construct: made in house; host or cells: Escherichia coli BL21
T1 sequence (P10636 1-441 isoform P10636-8 P301L): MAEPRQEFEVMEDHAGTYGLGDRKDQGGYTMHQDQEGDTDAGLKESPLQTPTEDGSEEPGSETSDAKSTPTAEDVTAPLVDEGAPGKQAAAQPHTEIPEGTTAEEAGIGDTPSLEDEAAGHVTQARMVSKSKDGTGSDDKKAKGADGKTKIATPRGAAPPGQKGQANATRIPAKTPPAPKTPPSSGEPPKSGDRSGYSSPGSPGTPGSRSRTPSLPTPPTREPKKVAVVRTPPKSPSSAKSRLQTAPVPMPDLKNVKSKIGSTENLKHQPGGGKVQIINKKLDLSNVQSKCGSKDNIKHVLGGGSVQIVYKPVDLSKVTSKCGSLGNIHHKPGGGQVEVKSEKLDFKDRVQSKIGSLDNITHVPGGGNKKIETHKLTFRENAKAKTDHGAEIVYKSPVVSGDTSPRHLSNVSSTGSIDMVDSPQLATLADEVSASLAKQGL
Source text: Protein purification. Recombinant wild-type Tau and Tan with P301L mutation proteins was expressed in Escherichia coli (E. coli, BL21) and purified as described; Goedert M, Jakes R (1990) Expression of separate isoforms of human tau protein: correlation with the tau pattern in brain and effects on tubulin polymerization. EMBO J 9, 4225-4230. Combs B, Tiernan C T, Hamel C, Kanaan N M (2017) Production of recombinant tau oligomers in vitro. Methods Cell Biol 141, 45-64.
Effect of P35 on Tau-P30IL aggregation. Tau-P301L protein is used in all aggregation assays. Tau seeds are prepared during a first polymerization: 15UM of monomeric Tau-P301L was incubated at 37° C. in polymerization buffer (PI-buffer): NaH2PO4 25 mM, Na2HPO4 25 mM, NaCl 25 mM, EDTA SmM PH 6,6 with heparin 7.5 μM, Thioflavine-T 50 μM, and Dithiothreitol (DTT) 0.3 mM in a final volume of 100 μl. Fluorescence was monitored every 30 minutes during 25 hours at 480 nm (excitation at 450 nm) using Perkin-Elmer Endvision spectrophotometer. After polymerization, samples (100 μl) were centrifuged at 20,000 g for 1 hour at 4° C. The pellets were resuspended in 100 μl of PI-buffer and sonicated (Branson sonicator) at 40%, 3 times of 1 second, in order to obtain small pre-formed Tau fibrils used as seeds for the second polymerization assay. A volume of 18% of Tau seeds was pre-incubated in the same buffer of the first polymerization, with or without polypeptides, during 1 h at 37° C. Subsequently, 5 μM of monomeric Tau-P301L was added and fluorescence was monitored in the same conditions.

[1] = system: hTau-P301S mouse DRG neurons; experiment: Western blot of sarkosyl-insoluble Tau fraction of peptide-treated DRG neurons; assay type: cell-based; conditions: peptide 200 nM in cell medium for 15 days, compared to scramble control
Description: DRG culture and western-blot analyses. DRG neurons were collected from hTau-P301S mice spinal cords as described by Sleigh and dissociated with collagenase (ThermoFisher Scientific, 17100-017) 2900 U/mL during 90 min followed by 0.1% trypsin (Life Technologies, 15090-046) 3 mM EDTA containing DNaseI (50 μg/mL; Sigma-Aldrich, 04536282001) for 5 min; Sleigh J N, Weir G A, Schiavo G, A simple, step-by-step dissection protocol for the rapid isolation of mouse dorsal root ganglia. BMC RES NOTES, 2016, 9, 82.
Cell treatment was stopped using 1×PBS (VWR, X0515-500) supplemented with 2% horse serum (ThermoFisher Scientific, 16050-122), and DRG neurons were dissociated with a Pasteur pipette. Cells were then centrifuged for 5 min at 1,300 g and the pellet was resuspended in DMEM (Fisher Scientific, 12077549) with 9% fetal bovine serum. After filtration on a 0.40 μm filter followed by centrifugation 5 min at 1,300 g. the pellet was resuspended in neurobasal medium complemented with B27 (50×), L-glutamine (100×) (Life Technologies, 11530536 and 25030024 respectively), NGF 2.5 S (27 ng/ml; ThermoFisher, 13257-019) and distributed in 2 wells of a 6-well culture plate. Cell cultures were maintained for 15 days in vitro (DIV) and the cell medium complemented with mitomycine C (Sigma-Aldrich, M4287) and 5-Fluorodeoxy-uridine (Sigma-Aldrich, F0503) was changed twice a week. Cells were harvested by scraping, centrifuged for 10 min at 200 g and the pellet was homogenized using PotterElvehjem 18 in cold extraction buffer (50 mM Tris-HCl, pH 7.5, 100 mM NaCl, 0.5% SDS, 2 mM CaCl2, 2 mM MgCl2) supplemented with a cocktail of protease and phosphatase inhibitors (Roche, 11836145001). […] Each sample was analyzed on a 10% SDS Page gel and transferred onto iBlot™ Gel Transfer membranes (Invitrogen, IB23001, IB24002). […] Images were recorded with the GeneGnome5 (Syngene). Quantification was performed using Genetools analysis software (Syngene).
DRGs treatment with peptides. […] After cell lysis, lysates were then analyzed by western-blot as described in “DRG culture and western-blot analyses”.

Row | Molecule | Tau-P301L aggregate formation (ThT fluorescence intensity) (Tau-P301L) [%] | insoluble Tau forms / Tau-P301S aggregation (western blot, sarkosyl-insoluble fraction) [1] | further results
1 | IRFKVLEGLYGEVDEAKEGNEAKAEGLQEYPDFIR [P35sc, reference compound] | 91.4 | – | –
2 | AKPNEGAIVEVALEGYYKDKLFDQRELRFEIGEGENLDLPYGLERAIQRM (listed as Homo sapiens) [P50] | – | – | effect on Tau-P301L aggregation in vitro (in words) (Tau-P301L; in vitro incubation of Tau-P301L with peptide, data not shown): comparable effects than P35
3 | YARAAARQARA-P35 (YARAAARQARAAKPNEGAIVEVALEGYYKDKLFDQRELRFEIGEGE) [YARA-P35] | – | tends to show a decrease of Tau-P301S aggregation | –
4 | AKPNEGAIVEVALEGYYKDKLFDQRELRFEIGEGE (Ac-AKPNEGAIVEVALEGYYKDKLFDQRELRFEIGEGE; not fully specified (C-terminus); listed as Homo sapiens) [P35] | 80.6 | – | –
5 | B1 | – | decrease of insoluble Tau forms | insoluble Tau forms / Tau-P301S aggregation (western blot, sarkosyl-insoluble fraction) ([1]; listed as YARA-PSO): tends to show a decrease of Tau-P301S aggregation
